{
  "source": "patent US20170307628A1",
  "target": "recombinant human IL-17A (human) (UniProt Q16552)",
  "sequence (Q16552 20-155 limits assumed)": "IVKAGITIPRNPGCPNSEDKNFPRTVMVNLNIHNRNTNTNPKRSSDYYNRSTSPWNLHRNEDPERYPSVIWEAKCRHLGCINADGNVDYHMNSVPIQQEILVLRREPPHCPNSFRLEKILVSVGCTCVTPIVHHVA",
  "assay": "cell-based or functional assay",
  "data": [
    {"substance": "human IL-17A receptor-Fc chimera (from UniProt Q96F46 33-320) (Fc fusion)", "values": [
      {"measurement": "inhibition of IL-17A induced IL-6 production in NHDF cells, IC50", "value": 1, "unit": "nM"}
    ]}
  ]
}
